In the DeepSol protein solubility set:

Assay: soluble on expression in E. coli; label from the status in PepcDB or PDB records

Sequence | soluble on expression in E. coli
MQDVFIIGSRGLPAKYGGFETFVEELISHQSSKNIRYHVACLSDTKHKVHFDYKGADCFYLNPPKLGPARVIAYDMMAITYALSYSDQHQIQNPIFYVLGNTVGAFIAPFVKQIHNRGGRFFINPDGLEWKRSKWSRPVQAYLKFSEKQMTRQADLVISDNIGIDRYLKQVYPWSKTCFIAYGTQTQPSRLATADSKVRAYFQTFDIREKDYYLILGRFVPENNYETAIKEFMASSTKRDLVIICNHEGNAYFKQLLAETECDKDPRIKFVGTLYDKELLAYIREQAYAYIHGHEVGGTNPGLLEALAHTNLNLVLGVDFNQSVAKSAALYWTKQKGQLAELINQVDAGFDSDHLGKEAKAIIQEHYTWEKIVGEYEALFLNEH | not soluble
MSLSLWWKRAKARMTESVTYYQEPAFEKLLPDPDPTFERPYTLCLSLDDLLIHSEWTREHGWRIAKRPGVDYFIRYLSQYYELVLFTTTPYATGEPVMRKLDPFRLILWPLYREATKFEDGEIVKDLSYLNRDLSKVIIIDTKAKHVRNQPDNAIILDPWKGDKDDKNLVNLIPFLEYIHTMQYSDVRKVIKSFDGKDIPTEGHHHHHH | not soluble
MAHHHHHHMQYQRAALVIASPALTQREVEFTKSAWLAGLRPDQRTAQQMREVSVEFPLLSRDVVVVRCGGSVVTAAIATALVEPTPQRPKHGLLHFSVRRLHTERDSPAADGSTQKNLVAFLERLVRTGGVIDTAGLCVLPGQKVWSLTVDVTIMNDEGNCNDAAVWAVIALLMHHRRPELTVRGSSVIVHPPHEREPVPLSVQHTPLPFTFAITMAPTEREKALNHQRALSATGSSSGPQPSSGVGNSIDTASAFAIDGTSPQPLGVVVDPTTAESLAAASSIVVAINAEGQVCTVVKAEGCSIHLKDLNACIEAAGTLAPRVLDLIKVAMEAHDERRKTAMKGQFAWAQKRSGVGKVEQACVKKIKTET | not soluble
MPFIECHIATGLSVARKQQLIRDVIDVTNKSIGSDPKIINVLLVEHAEANMSISGRIHGEAASTERTPAVS | soluble
MVEVESDSVAERDRSSFLAGHDAIRLAKSCVDSPPERWYAALYQVYADLTKLRCWSNVEVVYSDSATFPTGLLGPLFEEDSMVQELHSAQCILGSERACFHVRCCIVGSPPSGRAINALSPQSETRTEERIITSRREPEVVIAVPMHAMLKLSNLDQALRMSSHIEGIVKNRHVADSSASTHSTDRQAGSRKSSVIFGFVDEDTTTAYYRIREGACESNDRREFSTDDIASCLAQERT | not soluble
MAEHNELGKAGENAAVAYLEEHGYLIRHRNWRKGHFELDIVAAKENELVIVEVKTRSNTLFAQPEEAVDLPKIKRTVRAADAYMKLFQIDVPVRFDIITVIGENGNFRIDHIKEAFYPPLF | not soluble
GHHHHHHAIAENLYFQSEVSKANGTENNVEKFDAATQEATYLDEADVDAELEAMKKRLQEMEEEANRLKEVQEQSASEVPSSEEVDRRSVYVGNVDYGSTPEELQAHFKECGTINRVTILCDKFTGHPKGFAYIEFATEEGANNAVILNESLFRGRNLKVSIKRTNVPGISTTDRGRGRGFPRGIGFRGRGGLRGGFRGRGYHGFRGRGRMTPY | not soluble
MAKSLRASSHLNAKSVKRRGVFQKAVDAREQRISDKLKEDLLKQKLEDLKKKEEQGIDMDVDEKKSNEEAPRKKISTSGWRDGRHHTYKKAKLMKQSKKKTSFTRF | soluble
MSLASISPQGSMSLLSQLEIERLKASSNSQLYKLFRNCCLAVLNAGSHTDSSADIYDSYKDFEVNIIRRERGIKLELIEPPEEAFVDGEVIVGIRELLESVLRDILFTGERYSETDLEHADSATLTHVVFDILRNARTLRPQEEPNMVVCWGGHSINEIEYKYTKDVGYHIGLRGLNICTGCGPGAMKGPMKGATIGHAKQRVEGGRYLGLTEPGIIAAEPPNPIVNELVILPDIEKRLEAFVRCAHGIVIFPGGAGTAEELLYLLGILMHPDNQRQSLPVILTGPASSRDYFEALDEFIGATIGDEARQLYKIIIDDPAAVAQHMHAGMAAVKQYRRDSGDAYYFNWTLKINEEFQRPFSPTHENVAALNLHPDQPKERLAADLRRAFSAIVAGNVKDEGIRQIRKNGVFTIHGEQSLMKRLDELLRAFVEQGRMKLPGSVYNPCYKVITDEGHHHHHH | soluble
MKRPHGYQITSLRADKYGGYYAANFVGNEILYFDVNNNVNALVKDGFSYLKSPYDVIEANNLLYVTLYSSDEIGVYDKVLGVKRKSIGNKGTKDGELLAPQYMAIDKRNYIYVSEWGNKRVSKFGLEGDFILHFGSRTSGYKGLLGPTGVTYLNENIYVADSLRNTIEVFDTSGNHLYSVFTSIEGIEGLSSDFVGNNVIVSSKDGVYKYSIAKKTITKILKADKMNSKISSSILDANNQMIVSDFNNAKVSVYKSDASLYDSLEHHHHHH | soluble
MENREPPLLPARWSSAYVSYWSPMLPDDQLTSGYCWFDYERDICRIDGLFNPWSERDTGYRLWMSEVGNAASGRTWKQKVAYGRERTALGEQLCERPLDDETGPFAELFLPRDVLRRLGARHIGRRVVLGREADGWRYQRPGKGPSTLYLDAASGTPLRMVTGDEASRASLRDFPNVSEAEIPDAVFAAKRLEHHHHHH | soluble
MGSDKIHHHHHHMTGTESGASGGQPANSDDWDAVTARREAEALIIDVDGFEGPLDLLLTLSRTQKVDLRRISILALTEQYLVFIEKARQLRIELAADYLVMAAWLAFLKSKLLLPPEPGEEGPSGEDLAAHLAFQLERLAAMRDCAARLMAQDRLGRDRFVRGQTQAMTTNRKVIYTAGLLDLMQAYARIRTKDEFRPFVMDREAVLTMEEALDRLRGMVGYMGDWADLMSYLPDGWTTDPAKRRSAAAANFAAALELAKAGRVEIRQADTFSPIQLRRKEP | not soluble
MASIAIEYHSVVLGMERKVNVIYPDQSEIPKKDQGDKDIPVLYLLHGMGGNENSWQKRTAIERLLRHTNLIVVMPSTDLGWYTDTAYGLNYYRALSQELPQVLAAFFPNMTQKREKTFVAGLSMGGYGAFKWALKSNRFSYAASFSGALDFSPETLLEGKLGELAYWQGVFGQFDDPDLDKHYLKNMVAESDGKTKFYAWCGYEDFLFATNEKAIADFQAQGLDIDYHKGHGKHEWYYWNQQLEVLLEWLPINYQKEERLS | not soluble
SLVRNGRIAFAGPESDLPDDLSTADETTDCGGRWITPALIDCHTHLVFGGNRAMEFEMRLNGATYEEIAKAGGGIVSSVRDTRALSDEVLVAQALPRLDTLLSEGVSTIEIKSGYGLDIETELKMLRVARRLETLRPVRIVTSYLAAHATPADYKGRNADYITDVVLPGLEKAHAEGLADAVDGFCEGIAFSVKEIDRVFAAAQQRGLPVKLHAEQLSNLGGAELAASYNALSADHLEYLDETGAKALAKAGTVAVLLPGAFYALREKQLPPVQALRDAGAEIALATDCNPGTSPLTSLLLTMNMGATLFRMTVEECLTATTRNAAKALGLLAETGTLEAGKSADFAIWDIERPAELVYRIGFNPLHARIFKGQKVSP | not soluble
MMKRQTWPEPTIPVSQQFARGNFPVGIICEHPGEVNAYRYSSEEKRAMEHATEEQVQDLRCAAEVHRQVRRYAQSFIKPGISLLSMTDRIEKKLEELIEKDGLNRGQAFPTGCSLNHVAAHYTPNTGDKCVLMYDDVMKVDFGTQINGRIIDCAWTVAFKDEYEPLLTAVKEATYEGVKQAGIDVRLCDVGAAIQEVMESYEVELNGKVYPVKSIRNLSGHTIAPYVIHGGKSVPIVRGGEATRMEEGELFAIETFGSTGRGFVQEDMECSHYMMVPGGEKTQVRSDKAQQLLRHIHKTYNTLAFARKWLDRDGHDRHLLNLNQLVEAGAVNKYPPLCDIRGCYTAQLEHTLILKPTAKEILSKGDDY | not soluble
MGSDKIHHHHHHMSESEYKIADGSGKFLQAVKDGRRMKDAQWSKGRILLSNKRIVLAGSEGKRNLPLSEVQGLSGRHDVNQTVAKVGNYVSIRMTNESVMLVSLGDNTETFESKLYGALLDQTELQVKHPAVEGGVVTDEQFERARIKVDESELSVAMSNGSFVSVELDDVGSAEAASLEVNGDTKPVLKVEHTVNRDTSVQTYFATDSHTASILESLLTKEAEKSQGSVELSETEKRVLMALYSGVSSFEIPDFLGMDVDEVESIFERLIEVDVLEEVRKRREVTMKTRGRNIASEAINEE | not soluble
MGSDKIHHHHHHMARIPRFALVERDSSNHCTWRAHDFEHVLEEAGATDKFLELLGRYKEKYGVEINSYCLMGTHPHVTCTTRRDQEQFSRFWQVVNGQFARWYNKRRERRGQVVMERMRSPRIQAEGAHQLTVMRYGDLNPVRAGLVKSPKDWKWSSYRHYAFGEPDPLIDDAPEYLALGKTGPQRRKAYQALFALPLSESLRTRRIDLVEYPFVGDAHWVMHRLDVAGLSPPD | not soluble
MTSSFLYVLFTVSCLAALVSISEACFASGICGGGCPPPPPPMCSGGCGGGYSCGSYGCYRARARGSKTLSFKKPSEMNPDERFMKCCEDRNLPDSCLSKCSYRSYTKSALQSMYFKQDSCPMQAAADIQFCAAQGKDHTACCARNAVGTTLAGNKCFTFCDQRPGNVTQLDMSYLACYDRFENMKACFYQKASEASDPIVSFSNDRDNNREFAVDTETAEFRRPSQEHFRAPTSPQLPQNPLFAVQNLLARTFGQ | not soluble
MGSDKIHHHHHHMPNIEKYEIFLDFNGNEYEGVEKIYLNSEEEKLELDSVNLEIRSVKSDGKDTKFELKGEKLVIYGKIERELEIKFKGKASRDSILGIYVAPYDGKGMITTQFEAVYARRFIPCFDHPAMKARFKLSVRVQKGLKVISNMPVERIEEDVDGKVIYRFQETPKMSTYLLYLGIDEFEEISDNSKQPTVILATVPGKSKRGLFAINVARKVIEFYEKYFEIPYQLPKVHLIQVPEFAAGAMENWGAITFRETALLADDSSSISQKFRVAEVVAHELAHQWFGNLVTLKWWDDLWLNESFATFMSYKSIKHLFPQWDSEGHLIYDESIGALEDDSLSTTHPIEAHVKDPHEIEQMFDNISYGKGASILKMIEAYVGEENFRRGVVNYLNSFKFGNAEGKDLWNSISNAAGQSIGEIMADWITKPGYPVIFVNAYGNSIRFSQKRFTLLDSGLNEVYKVPITYEINDKFGTLLLDKESAEIRLDEGLKSIKVNINRTGFYRVLYDSLNLAFSSKLNAYEELGLVNDYWNFLLADLIDAKTYFGVIGRFVYTSNSFVSREITSQLLTLYYLFKKNYGKDFLVNQVKIFRKANDDLGKLAYSTVISALARMDEEFALGLSTLFDQYENIDSNIKEAVAIAYAVTNNDFNTLLEKYKRYTIDEEKNRILSAISSLRDPSIVVKVFSLIFERNIKAQDTRFVISSLLHNPHIREEVCSYLMNNFEEVKKFVNTVYGGPWGLGSIVRSMSFCGVDKPKDIIDFLEKVKFKEIERPIKESEERIKVYSRLKQNLP | not soluble
MGSSHHHHHHSSGLVPRGSHMSQSTYSLEQLADFLKVEFQGNGATLLSGVEEIEEAKTAHITFLDNEKYAKHLKSSEAGAIIISRTQFQKYRDLNKNFLITSESPSLVFQKCLELFITPVDSGFPGIHPTAVIHPTAIIEDHVCIEPYAVVCQHAHVGSACHIGSGSVIGAYSTVGEHSYIHPRVVIRERVSIGKRVIIQPGAVIGSCGFGYVTSAFGQHKHLKHLGKVIIEDDVEIGANTTIDRGRFKHSVVREGSKIDNLVQIAHQVEVGQHSMIVAQAGIAGSTKIGNHVIIGGQAGITGHICIADHVIMMAQTGVTKSITSPGIYGGAPARPYQEIHRQVAKVRNLPRLEERIAALEKLVQKLEALSEQH | soluble
MPDAVYVFTPKGHIRALPRGATALDFAYAVHSDLGNQCVAVKINNELLPLRTELKSGDIVEVVTAPYSKLEHHHHHH | not soluble
